Tested on: O=CCCC=O
Experiment: Alcohol dehydrogenase YqhD, coupled assay, NADPH consumption
Type: biochemical, E. coli
Conditions: other: coupled assay, substrate from 0.1-10 mM L-arabonate, 1 mM NADPH, pH 7.5, 10 nM YqhD, 30.0 °C
Experimental: 2-Ketoacid decarboxylase (Kivd) and alcohol dehydrogenase (YqhD): The decarboxylase activity of Kivd was measured by a coupled enzymatic assay with AraC, AraD, and YqhD (Zhang et al., 2011. ChemSusChem 4:1068-1070). Excess AraC, AraD, and YqhD was used and the oxidation of NADPH was monitored at 340 nm. The assay mixture contained 1 mM NADPH, 1 μM AraC, 1 μM AraD, and 100 nM YqhD and 0.1-10 mM L-arabonate in assay buffer (100 mM Tris-HCl buffer, pH 7.5, 5 mM MgSO4, 0.5 mM ThDP) with a total volume of 0.1 ml. The mixture was incubated at 30° C. for one hour and 10 nM Kivd was added. The dehydrogenase activity of YqhD was assayed according to NADPH initial consumption rates in a coupled assay. The assay mixture contained 1 mM NADPH, 100 nM Kivd, 1 μM AraC, 1 μM AraD, and 0.1-10 mM L-arabonate in 100 μl of 100 mM Tris-HCl buffer (pH 7.5) with 5 mM MgSO4. The mixture was first incubated at 30° C. for one hour. Afterwards, 10 nM YqhD was added and the NADPH consumption rate was monitored.

## E. coli alcohol dehydrogenase YqhD (Escherichia coli K-12)
  Km: 1900 µM
  kcat: 45.0 s⁻¹
